Target: Bicistronic receptor WU76UB CD3E_CD3E_2B4_CD3Z_CD3G_CD3G_OX40
Assay: cell-based or functional assay

Chain of Bicistronic receptor WU76UB CD3E_CD3E_2B4_CD3Z_CD3G_CD3G_OX40 (chain, as listed by the source limits assumed, form in doubt): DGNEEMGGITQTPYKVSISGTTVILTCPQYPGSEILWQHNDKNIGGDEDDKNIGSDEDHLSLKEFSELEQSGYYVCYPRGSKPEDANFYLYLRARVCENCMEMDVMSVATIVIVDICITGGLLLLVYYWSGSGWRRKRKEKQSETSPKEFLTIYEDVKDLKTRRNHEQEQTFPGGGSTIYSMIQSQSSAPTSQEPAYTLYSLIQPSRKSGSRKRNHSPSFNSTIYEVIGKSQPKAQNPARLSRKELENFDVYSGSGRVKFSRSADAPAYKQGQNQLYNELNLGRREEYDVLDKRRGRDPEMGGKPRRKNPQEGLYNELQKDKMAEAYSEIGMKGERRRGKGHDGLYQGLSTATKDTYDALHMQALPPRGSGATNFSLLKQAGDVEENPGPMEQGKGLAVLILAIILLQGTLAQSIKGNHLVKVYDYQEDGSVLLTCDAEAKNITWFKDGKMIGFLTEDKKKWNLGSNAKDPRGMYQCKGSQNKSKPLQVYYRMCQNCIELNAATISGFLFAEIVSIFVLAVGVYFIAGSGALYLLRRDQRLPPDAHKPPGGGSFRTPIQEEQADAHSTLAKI

fold change in p-S6 levels: 3 fold
Substance: Blinatumomab (bispecific antibody)
